Patent publication US12611443B2, “Methods and compositions related to therapeutic peptides for cancer therapy” (THE UNIVERSITY OF CHICAGO, priority 2018, dated 2026)
“Also recorded” adds a separate entry of the source.

T1: ELANE (Homo sapiens, UniProt P08246)
T1 sequence (P08246 30-267): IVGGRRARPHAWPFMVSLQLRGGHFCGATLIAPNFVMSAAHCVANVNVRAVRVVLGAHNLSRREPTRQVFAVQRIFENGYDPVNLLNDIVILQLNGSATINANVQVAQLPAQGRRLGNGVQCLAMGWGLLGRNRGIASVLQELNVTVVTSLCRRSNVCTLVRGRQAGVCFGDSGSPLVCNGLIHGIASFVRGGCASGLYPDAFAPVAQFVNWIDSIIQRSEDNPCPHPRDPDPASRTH

B1: ECP: eosinophil cationic protein, a pore-forming protein (protein)
chain: RPPQFTRAQWFAIQHISLNPPRCTIAMRAINNYRWRCKNQNTFLRTTFANVVNVCGNQSIRCPHNRTLNNCHRSRFRVPLLHCDLINPGAQNISNCTYADRPGRRFYVVACDNRDPRDSPRYPVVPVHLDTTI
B2: C peptide: C-terminal CD95 peptide containing both cleavage sites (aa. 212-335); Tet-on C printed as aa. 157-335 (protein)
chain: SPTLNPETVAINLSDVDLSKYITTIAGVMTLSQVKGFVRKNGVNEAKIDEIKNDNVQDTAEQKVQLLRNWHQLHGKKEAYDTLIKDLKKANLCTLAEKIQTIILKDITSDSENSNFRNEIQSLV
B3: C1-2: hCD95 C-terminal peptide aa 221-331 mimicking ELANE cleavage at both sites; death domain containing fragment (protein)
chain: AINLSDVDLSKYITTIAGVMTLSQVKGFVRKNGVNEAKIDEIKNDNVQDTAEQKVQLLRNWHQLHGKKEAYDTLIKDLKKANLCTLAEKIQTIILKDITSDSENSNFRNEI

Columns and labels:
MDA-MB-231 cells [1] = experiment: Cell viability of MDA-MB-231 cells treated with purified ELANE or ECP; format: cell-based, human
Procedure: (§1) In vitro cell viability assays. […] Luminescence was measured using a Victor X3 luminometer (PerkinElmer).

ELANE = target: T1, ELANE; experiment: ELANE activity assay with ECP (chromogenic substrate); format: biochemical; conditions: type II allosteric activator
Procedure: ELANE activity assays. Catalytic activity was measured using the chromogenic substrate N-Methoxysuccinyl-Ala-Ala-Pro-Val p-nitroanilide (Sigma, 100 μg/mL) according to manufacturer's protocol. Absorbance was measured at 405 nm using an accuSkan GO UV/Vis microplate spectrophotometer (ThermoFisher Scientific). For inactivation, ELANE was incubated with PMSF (1 mM, Sigma) or A1AT (42 nM, Athens Research & Technology) for 2 h. Residual PMSF was eliminated with a PD-10 desalting column (GE Healthcare Life). To monitor the effect of ECP on ELANE activity, ELANE (10 nM) was incubated with various doses of ECP (0-180 nM) at various substrate concentrations (0-1.7 mM).
Statistics. With the exception of proteomics studies, statistical significance was determined with the Student's two-tailed, unpaired t-test. Linear regression, Michaelis-Menten, and hyperbolic curve fittings were performed using Prism v.7 software.

[2] = tested on: Human monocyte-derived macrophages (HMDMs); experiment: Cell viability of HMDMs treated with purified ELANE or ECP; format: cell-based
Procedure: Primary human blood-derived cells.
as §1

[3] = tested on: human and murine cancer cells; experiment: CD95 overexpression, ELANE-mediated apoptosis (ANXA5); format: cell-based; conditions: ELANE 40 nM, ANXA5 at 30 min
Procedure: FIGS. 2A-2D Overexpressing CD95 proteins accelerates cancer cell killing by ELANE. Polycistronic adenoviral vectors were prepared to express the human and mouse CD95 sequences followed by the Encephalomyocarditis virus (EMCV) internal ribosome entry site and dTomato sequence under the control of the cytomegalovirus (CMV) promoter. Human and murine cancer cells or non-cancer cells were transduced to over-express full-length CD95, N-terminal CD95 (human: aa 1-209; mouse: aa 1-204), or C-terminal CD95 (human: aa 212-335; mouse: aa 204-327). (A): Transduction efficiency quantified by dTomato (Left). CD95 levels in dTomato− and dTomato+ cells quantified by geometric mean (MFI) (Middle). ANXA5 levels in dTomato− and dTomato+ cells 30 min after treatment with ELANE (40 nM) (Right). Representative data for A549 cells are shown. (B-C): Quantification of transduction efficiency (B) and relative CD95 overexpression (C) for cancer cells and non-cancer cells. (D): Quantification of ANXA5 levels following ELANE treatment (40 nM, 30 min) for mouse cancer cell lines (E0771, B16F10). *, p<0.05 Student's t-test.
as §1
(§2) CD95 overexpression studies. Polycistronic adenoviral vectors were prepared to express the human and mouse CD95 sequences followed by the Encephalomyocarditis virus (EMCV) internal ribosome entry site and dTomato sequence under the control of the cytomegalovirus (CMV) promoter (VectorBuilder). Human and murine cancer cells or normal or non-cancer cells were transduced to over-express full-length CD95, N-terminal CD95 (human: aa 1-209; mouse: aa 1-204), C-terminal CD95 (human: aa 212-335; mouse: aa 204-327), or C-terminal CD95 that mimicked ELANE cleavage at site 1 (human: aa 221-335), site 2 (human: aa 212-331), or both sites (aa 221-331). Cancer cells or normal or non-cancer cells were transduced with adenoviruses at an MOI of 50-250 depending on cell type, and expression of dTomato and CD95 (human: 558814; mouse, mouse: 565130, BD Biosciences) were confirmed by flow cytometry. A vector encoding GFP (Vector Builders) was used as a control.

MDA-MB-231 cells [4] = experiment: Doxycycline-inducible Tet-on expression of C or C1-2 in MDA-MB-231 cells; format: cell-based, human; conditions: for cell death/apoptosis on doxycycline-induced expression: Tet-on MDA-MB-231, doxycycline 0.2 or 2 μg/mL, 72 h, Calcein AM
Procedure: (§3) FIG. 4 Inducible Expression System. Scheme of doxycycline inducible Tet-on system to express either C (aa. 157-335) or C1-2 (aa. 221-331). C1-2 (DD containing fragment) upon addition of doxycycline (both in vitro and in vivo).
(§4) FIG. 5 Confirmation of C1-2 expression and cancer cell selective killing. (A) Tet-on C or C1-2 transduced MDA-MB-231 cells were treated with 2 μg/mL doxycycline (2 μg/mL) for 24 h. Cell lysates were collected for western blot. Confirming the expression of C or C1-2 expression. (B) Tet-on C or C1-2 transduced MDA-MB-231 cells were treated with 0.2 or 2 μg/mL doxycycline for 72 h. Cell viability was measured by Calcein AM. […] (C) Tet-on C1-2 transduced MCF10A cells were treated with 2 μg/mL doxycycline. Cell viability was measured at various time points by Calcein AM.
FIG. 6 In vitro testing MDA-MB-231 cell death post C1-2 induction. (A) Various single colony of Tet-on C1-2 transduced MDA-MB-231 cells were treated with 2 μg/mL doxycycline (2 μg/mL) for 72 h. Cell viability was measured by Calcein AM. Different colonies have different susceptibility of death post C1-2 induction. (B) C1-2 expression of various single colony of Tet-on C1-2 transduced MDA-MB-231 cells post doxycycline treatment were measured by western blot (C), and the level at 24 h was correlated with % death (normalized by full length). […] (C) Immunoblot of C1-2 and full length (FL) CD95 expression for various colony.

cancer cells = experiment: CD95 protein overexpression in cancer cells, viability in absence of ELANE (calcein-AM); format: cell-based, human; conditions: for cancer cell death/toxicity on expression in the absence of ELANE: transient overexpression
Procedure: FIGS. 1A-1K. ELANE cleaves CD95 to selectively kill cancer cells. (A): Heatmap summary of ELANE's effects on survival, stress, and apoptosis pathways in cancer cells and healthy cells. (B-C): Cancer cells were treated with ELANE (100 nM) and CD95 cleavage was assessed by western blotting using anti-N-terminal (B) or anti-C-terminal antibodies (C). *, lower molecular weight CD95 fragment. (D): Cancer cells or non-cancer cells were transduced to overexpress CD95 proteins, and effects on ELANE-mediated apoptosis were quantified by ANXAS at 30 min. n=2/group. See FIG. 1I for transduction and CD95 over-expression. (E): Cleavage of recombinant human CD95 N-terminal (aa 1-173) or C-terminal (aa 212-335) proteins by ELANE was assessed by SDS-PAGE and Coomassie blue staining. (F): Bands from (E) were digested with trypsin and analyzed by mass spectrometry to identify putative ELANE cleavage sites (i.e., peptides with non-tryptic ends). Major non-tryptic peptides were quantified by ion chromatograms. (G): Schematic of ELANE cleavage sites in CD95. […] (H): Cleavage of recombinant peptides corresponding to aa 214-231 and aa 317-335 in CD95 by ELANE was monitored by mass spectrometry. (I): Cancer cells or non-cancer cells were treated with fluorescein-labeled ELANE for 10 min and uptake was visualized by immunofluorescence. (J): ELANE catalytic activity in cancer cell lysates following exposure to ELANE for 30 mins in the presence and absence of Dynasore (60 μM endocytosis inhibitor). Effect of Dynasore on cancer cell killing capability of ELANE (measured by calcein-AM). n=6/group. (K): Cancer cells or non-cancer cells were transduced to overexpress various CD95 proteins, and cell viability in the absence of ELANE was determined by calcein-AM. n=10/group. *, p<0.05 Student's t-test.
as §1, §2

MCF10A cells = experiment: Doxycycline-inducible Tet-on expression of C1-2 in MCF10A cells; format: cell-based; conditions: doxycycline 2 μg/mL
Procedure: as §3, §4

MDA-MB-231 tumors = experiment: In vivo testing of Tet-on C1-2 transduced MDA-MB-231 tumors; parameters: species or system nude mouse
Procedure: FIG. 7 In vivo testing MDA-MB-231 tumor regression post C1-2 induction. (A) Tumor weight. (B) Tumor cells (millions) count (post-ficoll gradient). (C) Percent immune cells in tumors (mouse CD45+) measurement by flow cytometry.
In Vivo testing. Mammary glands of a nude mouse model were injected with 2 million Tet-on C1-2 transduced MDA-MB-231 cells. Once tumors reach approximately 80 to 100 mm3 mice are feed either a doxycycline diet or are injected intraperitoneally with doxycycline (50 mg/ml) every 5 days to induce Tet-on system. Tumor growth is monitored. Tumors are isolated and digested on day 21 post doxycycline treatment and tumor weights are measured, tumor cell numbers are counted, and CD45+ cells are measured by flow cytometry.

Molecule	killing at concentration present in PMN media, alone (MDA-MB-231 cells [1]; ECP 0.05 μg/mL)	effect on killing capability of ELANE (MDA-MB-231 cells [1]; ELANE 0.25 μg/mL and ECP 0.05 μg/mL)	cell viability, purified protein (MDA-MB-231 cells [1]; MDA-MB-231)	increase of ELANE catalytic turnover (kcat) (ELANE) [fold]	cell viability, purified protein [2]	effect of overexpression on ELANE-mediated killing [3]	effect of overexpression on ELANE-mediated killing ([3]; listed as aa. 212-335 of SEQ ID NO:1)	cell death/apoptosis on doxycycline-induced expression (MDA-MB-231 cells [4])	cell death/apoptosis on doxycycline-induced expression (MDA-MB-231 cells [4]; listed as C)	cancer cell death/toxicity on expression in the absence of ELANE (cancer cells)	cell death/apoptosis on doxycycline-induced expression (MCF10A cells)	tumor growth after doxycycline induction (MDA-MB-231 tumors; doxycycline IP or through the food)	CD45+ immune cells in tumors (MDA-MB-231 tumors; flow cytometry)	selective killing of cancer cells by expression (MDA-MB-231 cells [4]; FIG. 5A-5C)	correlation of expression level with extent of apoptosis/death (MDA-MB-231 cells [4]; different colonies of MDA-MB-231 cells)	killing mechanism induced by expression (cancer cells; MDA-MB-231 cells)	cancer cell death/toxicity on expression in the absence of ELANE (cancer cells; listed as aa. 221-331 of SEQ ID NO:1)
B1	could not kill these cells alone	significantly enhanced the selective killing capability of ELANE	killed MDA-MB-231 cells only at doses that were also toxic to HMDMs	~12	toxic to HMDMs												
B2						accelerated ELANE-mediated killing in human cancer cells	accelerated ELANE-mediated killing in both human and murine cancer cells	did not	not C caused MDA-MB-231 cell death	not toxic							
B3								induction of cell death in MDA-MB-231 cells; also recorded: underwent apoptosis; also recorded: caused MDA-MB-231 cell death		toxic	failed to induce apoptosis; also recorded: did not cause cell death	induced MDA-MB-231 tumor regression; also recorded: lessened tumor growth	increased the number of CD45^+ immune cells in tumors	can selectively kill cancer cells	significantly and positively correlated; also recorded: correlates with MDA-MB-231 cell death	induced the same killing mechanism as treating these cells with ELANE	induced cancer cell death in the absence of ELANE
